Data published in patent publication US7473541B2, “Identification, cloning, expression, and purification of three novel human calcium-independent phospholipase A2 family members possessing triacylglycerol lipase and acylglycerol transacylase activities” (priority 2004, dated 2009).
“Also recorded” adds a separate entry of the source.

B1: iPLA2zeta(His)6: recombinant human calcium-independent phospholipase A2 zeta (TTS-2.2, SEQ ID NO: 2) expressed in Sf9 cells (protein, listed as Homo sapiens)
chain: MFPREKTWNISFAGCGFLGVYYVGVASCLREHAPFLVANATHIYGASAGALTATALVTGVCLGEAGAKFIEVSKEARKRFLGPLHPSFNLVKIIRSFLLKVLPADSHEHASGRLGISLTRVSDGENVIISHFNSKDELIQANVCSGFIPVYCGLIPPSLQGVRYVDGGISDNLPLYELKNTITVSPFSGESDICPQDSSTNIHELRVTNTSIQFNLRNLYRLSKALFPPEPLVLREMCKQGYRDGLRFLQRNGLLNRPNPLLALPPARPHGPEDKDQAVESAQAEDYSQLPGEDHILEHLPARLNEALLEACVEPTDLLTTLSNMLPVRLATAMMVPYTLPLESALSFTIRLLEWLPDVPEDIRWMKEQTGSICQYLVMRAKRKLGRHLPSRLPEQVELRRVQSLPSVPLSCAAYREALPGWMRNNLSLGDALAKWEECQRQLLLGLFCTNVAFPPEALRMRAPADPAPAPADPASPQHQPAGPAPLLSTPAPEARPVIGALGLHHHHHH
modifications: C-terminal His6 tag
B2: iPLA2epsilon(His)6: recombinant human calcium-independent phospholipase A2 epsilon (adiponutrin, SEQ ID NO: 1) expressed in Sf9 cells (protein, listed as Homo sapiens)
chain: MYDAERGWSLSFAGCGFLGFYHVGATRCLSEHAPHLLRDARMLFGASAGALHCVGVLSGIPLEQTLQVLSDLVRKARSRNIGIFHPSFNLSKFLRQGLCKCLPANVHQLISGKIGISLTRVSDGENVLVSDFRSKDEVVDALVCSCFIPFYSGLIPPSFRGVRYVDGGVSDNVPFIDAKTTITVSPFYGEYDICPKVKSTNFLHVDITKLSLRLCTGNLYLLSRAFVPPDLKVLGEICLRGYLDAFRFLEEKGICNRPQPGLKSSSEGMDPEVAMPSWANMSLDSSPESAALAVRLEGDELLDHLRLSILPWDESILDTLSPRLATALSEEMKDKGGYMSKICNLLPIRIMSYVMLPCTLPVESAIAIVQRLVTWLPDMPDDVLWLQWVTSQVFTRVLMCLLPASRSQMPVSSQQASPCTPEQDWPCWTPCSPEGCPAETKAEATPRSILRSSLNFFLGNKVPAGAEGLSTFPSFSLEKSLHHHHHH
modifications: C-terminal His6 tag
B3: iPLA2eta(His)6: recombinant human calcium-independent phospholipase A2 eta (GS2, SEQ ID NO: 3) expressed in Sf9 cells (protein, listed as Homo sapiens)
chain: MKHINLSFAACGFLGIYHLGAASALCRHGKKLVKDVKAFAGASAGFTSLVASVLLTAPEKIEECNQFTYKFAEEIRRQSFGAVTPGYDFMARLRSGMESILPPSAHFTELAQNRLHVSITNAKTRENHLVSTFSSREDLIKVLLASSFVPIYAGLKLVEYKGQKWVDFTGGLTNALPILPVGRTVTISPFSGRLDISPQDKGQLDLYVNIAKQDIMLSLANLVRLNQAFTLFPPSKRKMESLYQCGFDDTVKFLLKENWFEHHHHHH
modifications: C-terminal His6 tag

Key:
Format in all cases: biochemical
[1] = Assay for triolein lipase activity of recombinant enzymes; conditions: for triolein lipase specific activity: peak fractions from Co2+ TALON affinity column
Method: Assay for Triolein Lipase Activity—Sample fractions were incubated in 85 mM potassium phosphate, pH 7.0 containing 2 mM EDTA and 2 mM DTT for 15 min at 37° C. in the presence of a suspension of 100 microM [9,10-^3H(N)]-triolein (100 microCi/micromol) in 25 microM egg yolk lecithin, and 100 microM sodium taurocholate. In some reactions, BEL was added at the indicated concentrations and incubated with enzyme at room temperature for 3 min prior to the addition of radiolabeled substrate. After extraction of radiolabeled reaction products and remaining substrate into butanol, samples were spotted on TLC plates, overlaid with oleic acid standard, dried, and developed in chloroformlmethanol/NH4OH (65:25:5). The region of the plate corresponding to the oleic acid standard (visualized by iodine staining) was scraped into scintillation vials and quantified by liquid scintillation spectrometry.

[2] = Assay for calcium-independent phospholipase A2 activity of recombinant enzymes; conditions: for calcium-independent PLA2 activity: Sf9 cytosol and membrane fractions, 1-palmitoyl-2-[1-14C]-oleoyl-sn-glycerol-3-phosphocholine, relative to control; for PLA2 hydrolysis rate: affinity purified, 30 min
Description: […] Reactions were terminated by addition of 100 microliters of butanol and extraction of the radiolabeled product and remaining substrate into the butanol layer by vigorous vortexing. Samples were spotted on LK6 Silica Gel 60 Å TLC plates, overlaid with oleic acid standard, dried, and developed in petroleum etherlethyl etherlacetic acid (70:30:1). The region of the plate corresponding to the oleic acid standard (visualized by iodine staining) was scraped into scintillation vials and quantified by liquid scintillation spectrometry.

[3] = Assay for acylglycerol transacylase activity; conditions: affinity purified
Method: Assay for Acylglycerol Transacylase Activity—Highly purified CO^2+-TALON affinity chromatographic fractions containing iPLA2epsilon(His)6 (6xHis tag disclosed as SEQ ID NO: 29), iPLA2zeta(His)6 (6xHis tag disclosed as SEQ ID NO: 29) or iPLA2eta(His)6 (6xHis tag disclosed as SEQ ID NO: 29) (40 microliters) were incubated in 85 mM potassium phosphate, pH 7.0 (200 microliters final volume) for 15 mm at 37° C. in the presence of 10 microM [1-^14-C]-mono-olein (acyl donor), 25 microM acyl acceptor (mono-olein or diolein), 25 microM egg yolk lecithin, and 25 microM sodium taurocholate. After extraction of radiolabeled reaction products and remaining substrate into butanol, samples were spotted on TLC plates, overlaid with trileiddiolein standards, dried, and developed in petroleum etherlethyl etherlacetic acid (75:25:1). The regions of the plate corresponding to either the diolein, triolein, and fatty acid standards (visualized by iodine staining) were scraped into scintillation vials and quantified by liquid scintillation spectrometry.

[4] = 1-palmitoyl-2-[1-14C]-arachidonyl-sn-glycerol-3-phosphocholine
[5] = 1-palmitoyl-2-[1-14C]-linoleoyl-sn-glycerol-3-phosphocholine

transacylation specific activity relative to iPLA2epsilon(His)6 and iPLA2zeta(His)6 [3]	Molecule	triolein lipase specific activity [1]	calcium-independent PLA2 activity [2]	PLA2 hydrolysis rate [2, 4]	PLA2 hydrolysis rate [2, 5]	triolein lipase specific activity relative to iPLA2epsilon(His)6 and iPLA2zeta(His)6 ([1]; Sf9 fractions, normalised to immunoreactive protein)
–	B1	9 nmol oleic acid·min^−1·mg^−1 protein	did not yield detectable amounts; also recorded: did not display measurable iPLA2 activity	119±6 pmol arachidonic acid·min^31 1·mg protein^−1	57±19 pmol linoleic acid·min^−1·mg protein^−1	–
–	B2	8 nmol oleic acid·min^−1·mg^−1 protein	20-50 pmol·min^−1·mg protein^−1	100±4 pmol arachidonic acid·min^31 1·mg protein^−1	57±3 pmol linoleic acid·min^−1·mg protein^−1	–
approximately 10 fold	B3	52 nmol oleic acid·min^−1·mg^−1 protein	did not yield detectable amounts; also recorded: did not display measurable iPLA2 activity	134±42 pmol arachidonic acid·min^31 1·mg protein^−1	77±23 pmol linoleic acid·min^−1·mg protein^−1	5-10 fold
